Results taken from publication PMC6442418, “Pycnoporus cinnabarinus glyoxal oxidases display differential catalytic efficiencies on 5-hydroxymethylfurfural and its oxidized derivatives” (Fungal Biology and Biotechnology, 2019).

B1: PciGLOX2 (Trametes cinnabarina) (protein)
chain: APSTPTGWQFNLKAERSGIVALESIVVSPTLVVFFDRATNDPLQINNHSAWGALWNLETSTVRALDVLTNSFCASGALLSNGTMASIGGDPNGFPGNPAIHPGTQAIRLFEPCDSPTGEGCTLFEDPVTLHLLEKRWYPSSVRIFDGSLLIVGGMHEETPFYNTDPALSFEFFPPKESTPRPSEFLNRSLPANLFPRVFALPDGKVFMVANNQSIIYDIEANTERILPDIPNNVRVTNPIDGSAILLPLSPPDFVPEVLVCGGTQTDTIDPSLLTSQTPASSQCSRIRLDEEGIARGWEVEHMLEGRMMPELVHLPNGQVLIANGARTGFAAIASVSDPVGGSNADHAVLVPSLYTPDAPLGTRISNVGLPSSGIARVYHSSITLTPQGNFLIAGSNPNNNSSVTAGVKFPSEFRVQTLDPPFMFVERPKILSMPKKLAFGKSFTVPIAVPSTLAHPGAKVQVSLMDLGFSSHAFHSSARLVFMNAKISQDGKSLTFTTPPNGRVYPPGPATIFLTIDDVTSEGAWVMMGSGNPPPTLE
notes: secreted copper radical oxidase (AA5), heterologously produced in Aspergillus niger, purified
B2: PciGLOX1 (Trametes cinnabarina) (protein)
chain: APSAPGWRFDLKAERSGIVALESIVVSPTLVLWFDRASDDPLQINNHSAWGALWNLETSTVRPLNVLTNSFCASGALLSNGSMASVGGDPRGFPGNPAINPGNQAIRIFEPCASPTGDGCTVFEDPQTLHLLEDRWYPSSIRIFDGSLLIVGGTHVNENFYNLHPANSFEFFPPKESTPRPSAFLERSLPANLFPRIFALPDGKVFMVANNQSIIYDIEANTERILPDIPNNVRVTNPIDGSAILLPLTPPDYIPEVLVCGGTSTDPLDPSLLSSQTPATTQCSRIRLDEEGIAKGWQVEHMLEPRTMPELVHIPNGQILIANGARTGFAAIKQVQDPIGNSNSDHAVLVPSIYTPDAPLGQRISNAGMPSSGIARVYHSSITLTPQGNFLIAGSNPNGNTTVGPGVKFPSEFRVQTLDPPFMFVERPKILNTPEKLAFNKTFTVPISVPSTLASPGAKVQVSLMDLGFSSHAFHSSARLVFMDATISRDRRSLTFTTPPNGRVFPPGPATVFLTIDGVTSEGAWVMMGSGNSPPTLE
notes: as for B1
B3: PciGLOX3 (Trametes cinnabarina) (protein)
chain: APSAPGWSFDLKKETSGIVALEAIVVSPTLVVFFDRASDDPLQINNHSAWGALWNLESSTVRPLDVLTNSFCASGALLSNGTMASVGGDPDGFVGNPAIRPGNQAIRLFEPCDSPTGDGCTLFEDPATLHLLEKRWYPSSARIFDGSLIIVGGMHEATPFYNTDPALSFEFFPRKEDTPRPSEFLNRSLPANLFPRVFALPDGKVFMVANNQSIIYDIEAKTERILPDVPNNVRVTNPMDGSAILLPLSPPDFVPEVLVCGGSQTDTIDPSLLTSQTPASSQCSRIRLDEEGIAKGWEVEHMLEGRIMPELVHLPNGQVLIANGGRTGFAAIASVSEPVGNSNADHPVLVPSLYTPDAPLGRRISNVGLPSSGIPRLYHSSVTLTPQGNFLIAGSNPNNRTTVGPGIKFPSEFRVQTLDPPFMSVERPKILNMPKKLGFNKSFTVPISVPSSLARPGAKVQISLMDLGFSSHAFHSSARLVFMNGKISQDSKSLTFTTPPNGRVYPPGPATVFLTIDDVTSEGAWVMMGSGNSPPTLE
notes: as for B1

Key:
Test in all cases: purified protein
Format in all cases: biochemical, Trametes cinnabarina
Details in all cases: 50 mM sodium tartrate pH 6, 30 °C, HRP 8 U, 0.1 mM ABTS, 5 µM H2O2
purified protein [1] = substrate: O=Cc1ccc(CO)o1
purified protein [2] = substrate: O=Cc1ccc(C=O)o1
purified protein [3] = substrate: OCC(O)CO
purified protein [4] = substrate: O=CC(=O)O
purified protein [5] = substrate: CC(=O)C=O
purified protein [6] = substrate: O=CC=O

Protein	Km (purified protein [1]) [µM]	kcat (purified protein [1]) [s⁻¹]	kcat/Km (purified protein [1]) [M⁻¹ s⁻¹]	Km (purified protein [2]) [µM]	kcat (purified protein [2]) [s⁻¹]	kcat/Km (purified protein [2]) [M⁻¹ s⁻¹]	Km (purified protein [3]) [µM]	Km (purified protein [4]) [µM]	Km (purified protein [5]) [µM]	Km (purified protein [6]) [µM]
B1	5870 ± 2040	0.56 ± 0.09	96.04 ± 0.01	210 ± 40	4.8 ± 0.24	23404 ± 0.01	–	–	–	–
B2	15660 ± 2350	1.59 ± 0.12	101.66 ± 0.01	4380 ± 100	0.54 ± 0.24	124.39 ± 0.01	–	–	–	–
B3	6350 ± 1320	0.75 ± 0.07	118.35 ± 0.01	180 ± 50	1.28 ± 0.09	7267.7 ± 0.01	5500	500	100	700
